In the supplement of paper PMC7877785:
± gives the uncertainty stated by the source.

Assay: self-splicing fitness, log relative to wild type (ln ratio); higher = more splicing; Tetrahymena group I intron in knt gene, E. coli kanamycin selection, DiMSum; sequences stand for … in CUCUCU…GGAGGGAAAAGUUAUCAGGCAUGCACCUGGUAGCUAGUCUUUAAACCAAUAGAUUGCAUCGGUUUAAAAGGCAAGACCGUCAAAUUGCGGGAAAGGGGUCAACAGCCGUUCAGUACCAAGUCUCAGGGGAAACUUUGAGAUGGCCUUGCAAAGGGUAUGGUAAUAAGCUGACGGACAUGGUCCUAACCACGCAGCCAAGUCCUAAGUCAACAGAUCUUCUGUUGAUAUGGAUGCAGUUCACAGACUAAAUGUCGGUCGGGGAAGAUGUAUUCUUCUCAUAAGAUAUAGUCGGACCUCUCCUUAAUGGGAGCUAGCGGAUGAAGUGAUGCAACACUGGAGCCGCUGGGAACUAAUUUGUAUGCGAAAGUAUAUUGAUUAGUUUUGGAGUACUCGUGGUCG
Outline: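 Fitness was computed with DiMSum as the error-weighted combination of replicate fold changes, kanamycin versus none, each normalised to wild type. The library randomised all eight intron nucleotides of the P1ex region, with the intron placed in the knt kanamycin-resistance gene on pET-22b(+) in E. coli BL21(DE3). Six replicate transformations were grown overnight at 37°C or 30°C on LB agar with or without 25 μg/mL kanamycin, plus 100 μg/mL carbenicillin, 50 μM IPTG and 0.2% rhamnose. Pooled colonies were amplicon-sequenced on an Illumina HiSeq 2500.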

Sequence | self-splicing fitness (ln) (30 °C) | self-splicing fitness (ln) (37 °C)
CGAAAGCAAUAUUACGUAUA | -3.52 ± 0.17 | -2.99 ± 0.21
CGAAAGCAAUAUUACGUUAG | -0.97 ± 0.068 | -0.895 ± 0.082
CGAAAGCAAUAUUACGUUCC | -2.1 ± 0.21 | -0.586 ± 0.22
CGAAAGCAAUAUUACGUUCG | -3.44 ± 0.14 | -2.62 ± 0.15
CGAAAGCAAUAUUACGUUCU | -0.581 ± 0.075 | 0.092 ± 0.1
CGACAGCAAUAUUACGACAA | -2.08 ± 0.13 | -1.27 ± 0.13
CGACAGCAAUAUUACGACGG | 0.243 ± 0.074 | 0.0681 ± 0.086
CGACAGCAAUAUUACGAGUG | -1.06 ± 0.046 | -0.592 ± 0.063
CGACAGCAAUAUUACGAUUG | -0.746 ± 0.07 | -0.877 ± 0.091
CGACAGCAAUAUUACGCACA | -0.429 ± 0.17 | 0.097 ± 0.17
CGACAGCAAUAUUACGCAGC |  | -1.96 ± 0.29
CGACAGCAAUAUUACGCAGG | -2.05 ± 0.081 | -0.906 ± 0.088
CGACAGCAAUAUUACGCAUG | -1.37 ± 0.075 | -0.351 ± 0.074
CGACAGCAAUAUUACGCCAC |  | 0.365 ± 0.49
CGACAGCAAUAUUACGCGAA | -2.75 ± 0.17 | -1.42 ± 0.14
CGACAGCAAUAUUACGCGUC | -1.94 ± 0.14 | -2.76 ± 0.27
CGACAGCAAUAUUACGCGUG | -1.55 ± 0.067 | -1.14 ± 0.095
CGACAGCAAUAUUACGCUCA | 0.00701 ± 0.094 | -0.503 ± 0.1
CGACAGCAAUAUUACGGAGU | -3.91 ± 0.2 | -2.53 ± 0.14
CGACAGCAAUAUUACGGCUC | -2.5 ± 0.11 | -1.89 ± 0.14
CGACAGCAAUAUUACGGGCA | -1.24 ± 0.14 | 0.117 ± 0.13
CGACAGCAAUAUUACGGGGC | -3.72 ± 0.29 | -2.87 ± 0.29
CGACAGCAAUAUUACGGGGG | -2.92 ± 0.094 | -2.51 ± 0.11

Sequence | self-splicing fitness (ln) (30 °C) | self-splicing fitness (ln) (37 °C)
CGACAGCAAUAUUACGGUAU | -3.62 ± 0.2 | -2.45 ± 0.23
CGACAGCAAUAUUACGGUGA | -2.34 ± 0.14 | -1.55 ± 0.14
CGACAGCAAUAUUACGGUUG | -3.3 ± 0.13 | -2.84 ± 0.18
CGACAGCAAUAUUACGUACC | -0.817 ± 0.12 | -0.217 ± 0.19
CGACAGCAAUAUUACGUAUC |  | -1.59 ± 0.19
CGACAGCAAUAUUACGUCCA | -0.437 ± 0.066 | -0.321 ± 0.081
CGACAGCAAUAUUACGUGAA | -1.93 ± 0.11 | -2.02 ± 0.15
CGACAGCAAUAUUACGUGAU | -3.44 ± 0.21 | -1.92 ± 0.17
CGAGAGCAAUAUUACGAAGA | -3.49 ± 0.36 | 
CGAGAGCAAUAUUACGACCU | -0.7 ± 0.21 | -0.635 ± 0.41
CGAGAGCAAUAUUACGCAAA | -2.67 ± 0.27 | 
CGAGAGCAAUAUUACGCAAU | -2.58 ± 0.36 | 
CGAGAGCAAUAUUACGCAGA | -3.36 ± 0.33 | -1.94 ± 0.26
CGAGAGCAAUAUUACGCCUC | -4.16 ± 0.39 | -1.27 ± 0.18
CGAGAGCAAUAUUACGCGAG | -2.82 ± 0.19 | -1.88 ± 0.22
CGAGAGCAAUAUUACGCGGG | -3.05 ± 0.32 | -2.16 ± 0.27
CGAGAGCAAUAUUACGCUCG |  | -2.39 ± 0.38
CGAGAGCAAUAUUACGGAGA | -2.61 ± 0.26 | 
CGAGAGCAAUAUUACGGAGC | -2.84 ± 0.35 | 
CGAGAGCAAUAUUACGGAUA | -2.25 ± 0.37 | -1.82 ± 0.41
CGAGAGCAAUAUUACGGCAA |  | -2.79 ± 0.48
CGAGAGCAAUAUUACGGCCG | -3.76 ± 0.43 | -1.02 ± 0.3
